Data as given in the RNAGym collection of RNA variant scans (doi:10.1073/pnas.2313332121).
Variants at the floor of the assay were thinned out.

B1: TPR 5TU (parent)
chain: GGAUCUUCUCGAUCUAACAAAAAAGACAAAUCUGCCACAAAGCUUGAGAGCAUCUUCGGAUGCAGAGGCGGCAGCCUUCGGUGGCGCGAUAGCGCCAACGUUCUCAACUAUGACACGCAAAACGCGUGCUCCGUUGAAUGGAGUUUAUCAUG

Variants of: B1
Test: polymerase ribozyme fitness, log enrichment relative to wild type (log ratio); higher = more active; in vitro selection for triplet polymerase activity
Method in brief: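 Both subunits of a heterodimeric triplet polymerase ribozyme were given their own mutant library, built by PCR and transcribed. Each library was annealed with a biotinylated primer, the partner subunit and triplets, incubated frozen at −7 °C, and its extended constructs gel-excised, captured on streptavidin beads and amplified by RT-PCR, all in one round done in triplicate. Fitness is the logarithm of genotype enrichment relative to wild-type enrichment, with replicates averaged by inverse-variance weighting. That logarithm is base 2, and Illumina-sequenced genotypes needed ≥10 input reads and ≥1 read per output.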

First: GGAUCUUCUAGAUCUAACAAAAAAGACAAAGCUGGCACAAACCUUGAGAGCAUCUUCGGAUGCAGAGGUGGCAGCCUUCGGUGGCGCGAUAACGGCAACAUUCUCAACUAUGACACGCAAAACGCGUGCUCCGUUGAAUGGAAUUUAUCAUG [C10A U31G C35G G42C C69U G92A C95G G100A G143A]
Second: GGAUCUUCUAGAUCUAACAAAAAAGACAAAUCUGCCACAAAGCUUGAGAGCAUCUUCGGAUGCAGAGGCGGCAGCCUUCGCUGGCGCGAUAGCGCCAACGUUCUCAACUAUGACACGCAAAACGCGUGCUCCGUUGAAUGGAGUUUAUCAUG [C10A G81C]
The “polymerase ribozyme fitness (log ratio)” value of the first is higher: -3.74 for the first, ≤ -4.2 for the second.

Going from GGAUCUUCUGGAUCUAACAAAAAAGACAAAUCUGCCACAAUGCUUGAGAGCAUCUUCGGAUGCAGAGGCGGCAGCCUUCGGUGGCGCGAUAGCGCCAACGUUCUCAACUAUGACACGCAAAACGCGUGCUCCGUUGAAUGGAGUUUAUCAUG [C10G A41U] to GGAUCUUCUAGAUCUAACAAAAAAGACAAAUCUGCCACAAAGCUUGACAGCAUCUUCGGAUGCAGAGGCGGCAGCCUUCGGGGGCGCGAUAGCGCCUACGUUCUCAACUAUGACACGCAAAACGCGUGCUCCGUUGAAUGGAGUUUAUCAUG [C10A G48C U82G A97U], the “polymerase ribozyme fitness (log ratio)” value falls from -4.05 to ≤ -4.2.

Going from GGAUCUUCUGGAUCUAACAAAAAAGACAAAUCUGCCGCAAAGCUUGAGAGCAUCUUCGGAUGCAGAGGCGGCAGCCUUCGGUGGCGCGAUACCGCCAACGUUCUCAACUAUGACACGCAAAACGCGUGCUCCGUGGGAUGGAGUUUAUGAUG [C10G A37G G92C U135G A137G C149G] to GGAUCUUCUAGAUCUAACAAAAAAGACAAAUCUGCCACAAAGCUUGAGAGCAUCUUCGGAUGCAGAGGCGGCAGCCUUCGGUGGCGCGAUAACGCCAACGUUCUCAACUAUGACACGCAAAACGCGUGCUCCGUUGAAUGGAGUUUAUCAUG [C10A G92A], the “polymerase ribozyme fitness (log ratio)” value rises from ≤ -4.2 to -4.08.

GGAUCUUCUGGAUCUAACAAUUAAGACAAAUCUGCCACAAAGCUUGAGAGCAUCAUCGCAUGCAGAGGCGGCAGCCUUCGGUGGCGCGAUAGCGCCAACGUUCUCAACUAUGACACGCAAAACGCGUGCUCCGUUGAAUGGCGUUUAUCAUG [C10G A21U A22U U55A G59C A142C] and GGAUCUUCUGGAUCUAACAAAAAAGACAACUCUGCCACAAAGCUUGAGAGCAUCUUCGGAUGCAGAGGCGGCAGCCUUCGGUGGCGCGAUAUCGCCAACGUUCUCAGCUAUGACACGCAAAACGCGUGCUCCGUUGAAUGGAGUUUACCUUG [C10G A30C G92U A107G U148C A150U] cannot be ordered by “polymerase ribozyme fitness (log ratio)” value: ≤ -4.2 for the first, ≤ -4.2 for the second.

GGAUCUUCUAGAUCUAACAAAAAAGACAAAUCUUCCACAAAGCUUGAGAGCAUCUUUGGAUGCAGAGGCGGCAGCUUUCGGUGGCGCGAUAGCGGCAACGUUCUCAACUAUGACAGGCAAAACGCGUGCUCCGUUGAAUGGAGUUUAUCAUG [C10A G34U C57U C76U C95G C116G] and GGAUCUUCUGGAUCUUACAAAAAAGACAAAUCUGCCACAAAGCUUGAGAGCAUUUACGAAUGCAGAGGCGGCAGCCUUCGGUGGCGCCAUAGCGCCAACGUUCUGAACUGUGACACGCUAAAAGCGUGCUCCGUUGAAUGGAGUGUACCAUG [C10G A16U C54U U56A G59A G88C C105G A110G A119U C123A U145G U148C] cannot be ordered by “polymerase ribozyme fitness (log ratio)” value: ≤ -4.2 for the first, ≤ -4.2 for the second.

GGAUCUUCUGGAUCUAACAAAACAGACAAAGCUGCCACAAAGCUUGAGAGCAUCUUCGGAUGCAGAGGCGGCAGUCUUCGGUGGCGGGAUAGAGCCAACGUUCUCAACUAUGACACGCAAAACGCGUGCUCCUUUUAAUGGAGUUUAUCAUG [C10G A23C U31G C75U C87G C93A G133U G136U] and GGAUCUUCUGGAUCUAACAAAAAAGACAAAUCUGCCACAACGCUUGAGAGCAUCUUCGGAUGCAGAGGCGGCUGCCUUCGGUGGCGCGAUAGCGCCAACGUUCUCAACUAUGACACGCAAAACGCGUGCUCCGAUGAAUGGAGUUUAUCAUG [C10G A41C A73U U134A] cannot be ordered by “polymerase ribozyme fitness (log ratio)” value: ≤ -4.2 for the first, ≤ -4.2 for the second.

GGAUCUUCUAGAUCUAACAAAAAAGACAAACCUGCCACAAAGCUUAAGAGCAUCUUCGGAUGCAGAGGGGGCAGCCUUCAGAGGCACGAUAGCGCCAAUUUUCUCAACUAUGACACGCAAAACGCGUGCUCCGUUGAAUGAAGUUUAUCAUG [C10A U31C G46A C69G G80A U82A G86A C99U G100U G141A] and GGAUCUUCUGGAUCUAACAUAAAAGACAAAUCUGACACAAAGCUUGAGAGCAUCUUCGGAUGCAGAGGCGGCAGCCUUCGGUGGGGCGAUAGCGCCAACGUUCUCAACUAUGACACGCAAAACGCGUGCUCCGUUGAAUGGCGUUUAUCAUG [C10G A20U C35A C85G A142C] cannot be ordered by “polymerase ribozyme fitness (log ratio)” value: ≤ -4.2 for the first, ≤ -4.2 for the second.

GGAUCUUCUAGAUCUAACAAAAAAGACAAAUCUGCCACAAAGCUUGAGAACAUCUUCGGGUGCAGAGGCGGCAGCCUUCGGUGGCACGAUAGCGCCAACGUUCUCAACUAUGACACGCAAAACGCGUGCUCCCUUGAAUGGAGUUUAUCAUG [C10A G50A A60G G86A G133C] and GGAUCUUCUGGAUCUAACAAAAAAGACACAUCUGCCACAAAGCUUGAGAGCAUAGUCGGAUGCAGAGGCGGCAGCCUUCGGUGGCGCAAUAUCGCCAACGUUCUCAACUAUGACACGCAAAACUCGUGCUCCGUUGAAUGGAGUUUAUCAUG [C10G A29C C54A U55G G88A G92U G124U] cannot be ordered by “polymerase ribozyme fitness (log ratio)” value: ≤ -4.2 for the first, ≤ -4.2 for the second.

GGAUCUUCUAGAUCUAACAAAAAAGACAAAUCUGCCACAAACCAUGAGAGCAACUUCGGAUGCAGAGGCGGCAGCCUUCGGUGGAGCGAUAGCGCCAACGUUCUCAACUAUGACACGCAAACCGCGUGCUCCGUUGAAUGGAGUUUAUCAUG [C10A G42C U44A U53A C85A A122C] and GGAUCUUCUGGAUCUAACAAAAAAGACAAAUCUGCCACAUAGCUUGAGAGCAUCUUCGGAUGCUGAGGCGGCAGCGUUCGGUGGAGCGAUAGCGCCAACGUUCUCAACUAUGACACUCAAAACGCGUGCUCCGUUAAAUGGAAUUUAUCAUG [C10G A40U A64U C76G C85A G117U G136A G143A] cannot be ordered by “polymerase ribozyme fitness (log ratio)” value: ≤ -4.2 for the first, ≤ -4.2 for the second.

In the case of GGAUCUUCUGGAUCUAACAAAAAAGUCCAAUCUGCCACAAAGCUUGAGAGCAUCUUCGGAUGCAGAGGCGGCAGCCUUCGGUGGCGAUAUCGCGCCAACGUUCUCAACUAUGACACGCAAAACGCGUGCUCCGUUGAAUGGAGUCUAUCAUG [C10G A26U A28C C87A G88U A91C U145C], the “polymerase ribozyme fitness (log ratio)” value is reported as ≤ -4.2.
